Results taken from patent US20220242953A1 (JIANGSU HENGRUI MEDICINE, published 2022).
Each block holds one binder with its values, some of them ahead of it.

Experiments:
[1] = molecular target: human CD3 on the cell surface (Jurkat recombinant cells; T cells of PBMC) (human, UniProt P07766 23-207; P04234 22-171); assay: FACS on Jurkat recombinant cells expressing CD3, APC anti-human IgG Fc detection, geometric mean fluorescence
Description: (§1) The ability of bispecific antibodies to bind to cell surface antigens was detected by FACS method.
(§2) FACS buffer (98% PBS, 2% FBS) was added into a 96-well U-shaped bottom plate (corning, 3795) to resuspend the cells, the serially diluted antibodies were added, incubated at 4° C. for 1 hour, and the plate was washed with FACS buffer twice. Then APC anti-human IgG Fc Antibody (biolegend, Cat #409306, dilution at 1:50) was added into each well, incubated at 4° C. for 30 minutes, washed twice, the cells were resuspended in FACS buffer, and finally the fluorescence signal values were read by FACS CantoII (BD).

[2] = molecular target: T1, human B7H3 on the cell surface (A498, CT26/hB7H3, U87, Detroit562 cells) (human, UniProt Q5ZPR3 29-534); assay: cell-based or functional assay
T1 sequence: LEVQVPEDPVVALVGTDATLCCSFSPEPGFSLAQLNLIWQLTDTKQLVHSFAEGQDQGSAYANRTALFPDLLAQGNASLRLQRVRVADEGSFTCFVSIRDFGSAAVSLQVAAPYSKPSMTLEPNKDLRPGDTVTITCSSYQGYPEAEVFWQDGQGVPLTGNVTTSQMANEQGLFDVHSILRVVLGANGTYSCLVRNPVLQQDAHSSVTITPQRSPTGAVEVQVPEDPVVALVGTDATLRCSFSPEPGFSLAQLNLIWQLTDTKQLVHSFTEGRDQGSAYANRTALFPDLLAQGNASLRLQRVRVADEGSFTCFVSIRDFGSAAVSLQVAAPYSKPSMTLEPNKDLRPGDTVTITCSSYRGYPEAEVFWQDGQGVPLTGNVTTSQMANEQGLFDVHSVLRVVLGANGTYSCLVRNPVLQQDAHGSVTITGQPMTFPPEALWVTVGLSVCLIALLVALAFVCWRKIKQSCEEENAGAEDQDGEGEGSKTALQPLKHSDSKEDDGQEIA

[3] = molecular target: T2, Monkey CD3 antigen for detection (Acro biosystem cat #CDD-C52W4); monkey CD3 epsilon-His and monkey CD3 … (monkey (cyno), UniProt Q95LI5 22-117; Q95LI8 22-105); assay: Biacore T200 SPR, bispecific antibody captured, antigen as analyte, 1:1 Langmuir fit
T2 construct: Bought antigen
Description: (§3) The detection of antibody affinity to B7H3 and CD3 was performed in the form of capture antibody. BsAb was captured by CM5 biosensor chip (Cat. #BR-1005-30, GE) or Protein A (Cat. #29127556, GE) biosensor chip coupled with Anti-Human IgG Antibody (Cat. #BR-1008-39, Lot. #10260416, GE), and then each antigen flowed through the surface of the chip. The reaction signals were detected in real time with the Biacore T200 instrument to obtain the binding and dissociation curves. After the dissociation of each experimental cycle was completed, the chip was washed and regenerated with regeneration buffer Glycine1.5 (Cat #BR100354, GE) or 3 M MgCl₂ (from Human antibody capture kit, Cat. #BR100839, GE). The data were fitted with the (1:1) Langmuir model using GE Biacore T200 Evaluation version 3.0 software, and the affinity values were obtained.

[4] = molecular target: T3, Human CD3 antigen for detection (SinoBiological cat #CT038-H2508H); human CD3 epsilon-His and human CD3 … (human, UniProt P07766 23-126; P04234 22-105); assay: as above
T3 construct: Bought antigen
Description: as §3

[5] = molecular target: T4, Human B7H3 antigen for detection (SinoBiological cat #11188-H08H) (human, UniProt Q5ZPR3 29-461); assay: as above
T4 construct: Bought antigen
T4 sequence: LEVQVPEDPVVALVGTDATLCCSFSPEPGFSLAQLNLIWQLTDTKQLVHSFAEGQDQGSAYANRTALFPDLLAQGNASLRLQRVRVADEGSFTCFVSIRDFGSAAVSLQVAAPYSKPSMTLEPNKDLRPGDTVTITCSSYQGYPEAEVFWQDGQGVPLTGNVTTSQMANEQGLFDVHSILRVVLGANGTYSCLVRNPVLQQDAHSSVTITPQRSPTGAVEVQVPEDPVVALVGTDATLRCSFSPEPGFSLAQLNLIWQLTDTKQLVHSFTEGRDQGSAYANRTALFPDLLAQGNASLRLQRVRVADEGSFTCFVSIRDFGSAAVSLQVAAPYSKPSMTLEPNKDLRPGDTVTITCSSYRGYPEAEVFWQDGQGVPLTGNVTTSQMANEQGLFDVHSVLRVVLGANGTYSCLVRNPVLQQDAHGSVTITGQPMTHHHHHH
Description: as §3

[6] = molecular target: T5, Monkey B7H3 antigen for detection (SinoBiological cat #90806-C08H) (monkey (cyno)); assay: as above
T5 construct: Bought antigen; also called monkey (cyno) B7H3
T5 chain: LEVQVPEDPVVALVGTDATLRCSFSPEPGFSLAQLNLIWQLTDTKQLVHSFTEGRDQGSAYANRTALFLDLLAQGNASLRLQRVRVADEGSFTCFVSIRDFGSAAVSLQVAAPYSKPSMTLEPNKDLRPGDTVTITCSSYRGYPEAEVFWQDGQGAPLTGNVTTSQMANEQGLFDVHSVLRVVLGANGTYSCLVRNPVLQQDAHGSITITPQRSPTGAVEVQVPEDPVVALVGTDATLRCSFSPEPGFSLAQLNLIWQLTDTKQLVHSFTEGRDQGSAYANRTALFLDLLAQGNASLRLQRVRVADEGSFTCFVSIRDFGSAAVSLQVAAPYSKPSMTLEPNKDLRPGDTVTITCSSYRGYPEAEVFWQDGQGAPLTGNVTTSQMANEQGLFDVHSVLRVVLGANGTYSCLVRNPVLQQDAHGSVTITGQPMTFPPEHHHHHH
Description: as §3

[7] = molecular target: T1, human B7H3 on the cell surface (A498, …); assay: FACS on CT26/hB7H3 cells over-expressing human B7H3, APC anti-human IgG Fc detection, geometric mean fluorescence
Description: as §1, §2

[8] = molecular target: T1, human B7H3 on the cell surface (A498, …); assay: FACS on A498 cells expressing human B7H3, APC anti-human IgG Fc detection, geometric mean fluorescence
Description: as §1, §2

[9] = molecular target: T3, Human CD3 antigen for detection …; assay: Biacore T200 SPR, bispecific antibody captured, CD3 antigen as analyte, 1:1 Langmuir fit
Description: as §3

[10] = molecular target: T3, Human CD3 antigen for detection …; assay: Biacore T200 SPR, bispecific antibody captured, CD3 antigen as analyte
Description: as §3

T2 sequence (Q95LI5 other isoform, or with tags, fused parts or gaps mutant, chain 1 of 2): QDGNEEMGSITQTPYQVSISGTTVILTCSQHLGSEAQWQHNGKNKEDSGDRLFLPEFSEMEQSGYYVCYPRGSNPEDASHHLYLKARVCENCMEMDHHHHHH
T2 sequence (Q95LI8 other isoform, or with tags, fused parts or gaps mutant, chain 2 of 2): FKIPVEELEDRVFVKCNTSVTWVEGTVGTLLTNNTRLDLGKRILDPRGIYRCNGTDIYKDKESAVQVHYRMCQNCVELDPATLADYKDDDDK
T3 sequence (P07766 other isoform, or with tags, fused parts or gaps H2508H H2508H, chain 1 of 2): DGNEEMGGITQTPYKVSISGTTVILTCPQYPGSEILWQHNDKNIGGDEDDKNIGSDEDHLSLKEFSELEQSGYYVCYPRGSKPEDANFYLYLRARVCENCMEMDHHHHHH
T3 sequence (P04234 other isoform, or with tags, fused parts or gaps H2508H H2508H, chain 2 of 2): as the sequence (Q95LI8 other isoform, or with tags, fused parts or gaps mutant, chain 2 of 2) above, with V5I, K15N, V20I, T32S, N33D, N34I, A64T, N74S, L83V counted along it
human CD3 on the cell surface (Jurkat recombinant cells; T cells of PBMC), sequence (P07766 23-207, chain 1 of 2): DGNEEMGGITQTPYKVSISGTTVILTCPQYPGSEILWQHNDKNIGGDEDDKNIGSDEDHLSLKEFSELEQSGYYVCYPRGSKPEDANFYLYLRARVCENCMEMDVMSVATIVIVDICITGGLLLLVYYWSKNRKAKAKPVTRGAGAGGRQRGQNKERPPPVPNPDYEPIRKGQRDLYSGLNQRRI
human CD3 on the cell surface (Jurkat recombinant cells; T cells of PBMC), sequence (P04234 22-171, chain 2 of 2): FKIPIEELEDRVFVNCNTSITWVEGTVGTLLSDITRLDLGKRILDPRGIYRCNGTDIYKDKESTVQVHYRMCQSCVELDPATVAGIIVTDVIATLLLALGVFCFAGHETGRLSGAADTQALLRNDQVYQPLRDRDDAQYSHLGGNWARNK

EC50 (read off the curve) [1]: ~100 nM
Kd [3]: 1.59 nM
Kd [4]: 66.1 nM
Kd [5]: 5.33 nM
Kd [6]: 7.31 nM
EC50 (read off the curve) [7]: ~1 nM
B1: bispecific antibody 118 (AFF 6-3) (bispecific antibody)
chain 1: not shown
chain 2: QTVVTQEPSFSVSPGGTVTLTCGLSSGSVSTSHYPSWYQQTPGQAPRMLIYNTNTRSSGVPDRFSGSILGNKAALTITGAQADDESDYYCAIHVDRDIWVFGGGTKLTVLGGGGSGGGGSGGGGSQVQLVQSGGGVVQPGTSLRLSCAASGFIFSSSAMHWVRQAPGKGLEWVAVISYDGSNKYYVDSVKGRFTISRDNSKNTLYLQMNSLRAEDTAVYYCARSARLYASFDYWGQGALVTVSSGGGDKTHTCPPCPAPEAAGGPSVFLFPPKPKDTLMISRTPEVTCVVVDVSHEDPEVKFNWYVDGVEVHNAKTKPREEQYNSTYRVVSVLTVLHQDWLNGKEYKCKVSNKALPAPIEKTISKAKGQPREPQVCTLPPSREEMTKNQVSLSCAVKGFYPSDIAVEWESNGQPENNYKTTPPVLDSDGSFFLVSKLTVDKSRWQQGNVFSCSVMHEALHNHYTQKSLSLSPGK
notes: B7H3 bivalent CD3-B7H3 bispecific antibody, CD3 VH HRH-3, CD3 scFv at the N-terminus
Emax (%), PBMC-mediated killing of A498 cells (B7H3 high) [2]: 65.9%
Emax (%), PBMC-mediated killing of Detroit562 cells (B7H3 low) [2]: 39.2%
Emax (%), PBMC-mediated killing of U87 cells (B7H3 intermediate) [2]: 67.2%
IC50 (nM), PBMC-mediated killing of A498 cells (B7H3 high) [2]: 0.34 nM
IC50 (nM), PBMC-mediated killing of Detroit562 cells (B7H3 low) [2]: 14.5 nM
IC50 (nM), PBMC-mediated killing of U87 cells (B7H3 intermediate) [2]: 2.4 nM

EC50 (read off the curve) [8]: ~40 nM
Kd [3]: 1.24 nM
Kd [4]: 84.7 nM
Kd [5]: 4.29 nM
Kd [6]: 5.61 nM
Kd [9]: 97.2 nM
EC50 (read off the curve) [7]: ~2 nM
B2: bispecific antibody 127 (AFF3-3) (bispecific antibody)
chain 1: not shown
chain 2: B1 chain 2
notes: B7H3 bivalent CD3-B7H3 bispecific antibody, CD3 VH HRH-3
Emax (%), PBMC-mediated killing of A498 cells (B7H3 high) [2]: 67.5%
Emax (%), PBMC-mediated killing of Detroit562 cells (B7H3 low) [2]: 26.5%
Emax (%), PBMC-mediated killing of U87 cells (B7H3 intermediate) [2]: 69.5%
IC50 (nM), PBMC-mediated killing of A498 cells (B7H3 high) [2]: 2.4 nM
IC50 (nM), PBMC-mediated killing of Detroit562 cells (B7H3 low) [2]: 15.8 nM
IC50 (nM), PBMC-mediated killing of U87 cells (B7H3 intermediate) [2]: 8.2 nM

EC50 (read off the curve) [1]: ~300 nM
EC50 (read off the curve) [8]: ~30 nM
Kd [3]: 0.813 nM
Kd [4]: 85.3 nM
Kd [5]: 5.35 nM
Kd [6]: 6.9 nM
EC50 (read off the curve) [7]: ~2 nM
B3: bispecific antibody 132 (AFF3-3SS) (bispecific antibody)
chain 1: not shown
chain 2: B1 chain 2
Emax (%), PBMC-mediated killing of A498 cells (B7H3 high) [2]: 66.4%
Emax (%), PBMC-mediated killing of Detroit562 cells (B7H3 low) [2]: 15.2%
Emax (%), PBMC-mediated killing of U87 cells (B7H3 intermediate) [2]: 67.6%
IC50 (nM), PBMC-mediated killing of A498 cells (B7H3 high) [2]: 2.94 nM
IC50 (nM), PBMC-mediated killing of Detroit562 cells (B7H3 low) [2]: 15.7 nM
IC50 (nM), PBMC-mediated killing of U87 cells (B7H3 intermediate) [2]: 11.9 nM

binding result [10]: no binding
B4: bispecific antibody 156 (AFF3-6) (bispecific antibody)
chain 1: not shown
chain 2: B1 chain 2
notes: B7H3 bivalent CD3-B7H3 bispecific antibody, CD3 VH HRH-6

binding result [10]: no binding
B5: bispecific antibody 155 (AFF3-5) (bispecific antibody)
chain 1: not shown
chain 2: B1 chain 2
notes: B7H3 bivalent CD3-B7H3 bispecific antibody, CD3 VH HRH-5
